In patent US20030186334A1, “KTS-disintegrins” (Temple University - Of the Commonwealth System of Higher …, priority 2001, published 2003):

Experiments:
[1] = tested on: dermal microvascular endothelial cells (EC); assay: apoptosis by caspase-3 levels in dermal microvascular endothelial cells; format: cell-based
Method: (§1) The mechanisms of the cancer-suppressing effect observed for obtustatin were investigated as follows. Dermal microvascular endothelial cells (EC) and human melanoma cells (MV3) were cultured and exposed to TNF-α, vincristine and obtustatin. (TNF-α and vincristine are compounds which induce cell death by apoptosis in both normal and cancerous cells.) Control cells received only vehicle. The extent of apoptosis was measured by determining caspase-3 levels.

[2] = tested on: human melanoma cells (MV3); assay: apoptosis by caspase-3 levels in melanoma MV3 cells; format: cell-based
Method: as §1

α1β1 integrin [3] = target: T1, α1β1 integrin (Homo sapiens, UniProt P05556+P56199); assay: adhesion of α1K562 cells to immobilized collagen IV; format: cell-based; details: for IC50: α1K562 cells, α1β1, collagen IV
T1 construct: expressed in transfected cells; host or cells: α1K562 cells
T1 sequence (P56199 29-1179): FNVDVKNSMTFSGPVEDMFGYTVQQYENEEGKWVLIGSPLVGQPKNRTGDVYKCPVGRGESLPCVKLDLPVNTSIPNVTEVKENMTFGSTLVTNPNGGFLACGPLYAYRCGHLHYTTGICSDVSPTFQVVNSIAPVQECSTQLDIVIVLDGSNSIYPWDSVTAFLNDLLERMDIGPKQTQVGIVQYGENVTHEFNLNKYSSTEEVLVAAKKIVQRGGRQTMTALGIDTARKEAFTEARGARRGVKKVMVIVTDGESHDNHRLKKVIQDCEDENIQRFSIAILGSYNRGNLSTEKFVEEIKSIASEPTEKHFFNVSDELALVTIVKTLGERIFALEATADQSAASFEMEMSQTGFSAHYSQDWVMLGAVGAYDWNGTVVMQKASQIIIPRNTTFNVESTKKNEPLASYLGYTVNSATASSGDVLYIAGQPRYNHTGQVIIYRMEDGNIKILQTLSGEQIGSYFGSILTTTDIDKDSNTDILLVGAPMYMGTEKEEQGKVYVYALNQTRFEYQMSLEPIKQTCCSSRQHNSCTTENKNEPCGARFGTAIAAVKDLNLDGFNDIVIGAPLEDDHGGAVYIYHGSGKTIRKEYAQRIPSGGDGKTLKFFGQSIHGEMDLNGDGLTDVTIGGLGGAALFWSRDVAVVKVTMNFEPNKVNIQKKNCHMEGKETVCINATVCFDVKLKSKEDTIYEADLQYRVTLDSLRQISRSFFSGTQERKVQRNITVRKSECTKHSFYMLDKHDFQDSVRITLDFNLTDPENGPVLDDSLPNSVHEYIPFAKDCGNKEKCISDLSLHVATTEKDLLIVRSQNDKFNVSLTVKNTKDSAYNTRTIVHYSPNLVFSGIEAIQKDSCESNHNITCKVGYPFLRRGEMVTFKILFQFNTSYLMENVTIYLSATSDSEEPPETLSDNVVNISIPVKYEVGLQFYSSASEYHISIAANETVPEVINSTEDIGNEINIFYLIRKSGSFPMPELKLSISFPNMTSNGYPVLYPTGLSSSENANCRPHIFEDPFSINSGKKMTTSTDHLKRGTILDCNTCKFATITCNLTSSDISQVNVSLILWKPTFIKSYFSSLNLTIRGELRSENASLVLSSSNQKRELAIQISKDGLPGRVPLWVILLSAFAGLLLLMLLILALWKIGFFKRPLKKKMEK
T1 sequence (P05556 21-798): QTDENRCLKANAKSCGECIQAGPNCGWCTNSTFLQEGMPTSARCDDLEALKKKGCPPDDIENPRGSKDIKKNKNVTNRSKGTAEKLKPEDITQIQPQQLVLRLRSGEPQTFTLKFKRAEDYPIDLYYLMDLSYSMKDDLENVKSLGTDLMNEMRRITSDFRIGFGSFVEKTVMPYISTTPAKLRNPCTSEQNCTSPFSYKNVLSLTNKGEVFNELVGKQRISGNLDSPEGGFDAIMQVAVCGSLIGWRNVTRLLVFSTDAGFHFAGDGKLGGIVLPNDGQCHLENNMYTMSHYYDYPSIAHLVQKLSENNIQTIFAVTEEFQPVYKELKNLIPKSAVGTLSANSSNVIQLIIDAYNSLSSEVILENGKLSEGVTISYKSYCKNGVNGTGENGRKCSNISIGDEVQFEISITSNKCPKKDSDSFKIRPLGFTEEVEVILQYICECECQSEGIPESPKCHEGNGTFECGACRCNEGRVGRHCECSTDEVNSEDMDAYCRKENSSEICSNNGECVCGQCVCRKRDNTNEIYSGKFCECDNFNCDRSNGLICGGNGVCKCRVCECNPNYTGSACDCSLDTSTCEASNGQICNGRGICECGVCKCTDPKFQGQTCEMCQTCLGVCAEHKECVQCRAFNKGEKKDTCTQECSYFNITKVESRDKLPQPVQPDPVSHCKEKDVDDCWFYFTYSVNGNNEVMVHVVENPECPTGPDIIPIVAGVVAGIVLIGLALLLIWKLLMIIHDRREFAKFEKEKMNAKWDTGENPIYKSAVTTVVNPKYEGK
Method: Collagen IV (0.2 μg/well) in 0.02 M acetic acid was immobilized by incubation overnight at 4° C. on a 96-well plate. Plates were then blocked with 1% (w/v) BSA (bovine serum albumin) in Hank's Balanced Salt Solution (HBSS) containing 3 mM Mg^2+ at room temperature for 1-2 hours to prevent cells from non-specifically binding to the plates. α1K562 cells were labeled by incubation with 12.5 μM 5-chloromethylfluorescein diacetete (CMFDA) in HBSS for 15 minutes at 37° C. CMFDA labeled α1K562 cells were then pelleted, washed and resuspended in HBSS buffer containing 3 mM Mg^2+ and 1% BSA. […] The plates were washed three times with HBSS containing 3 mM Mg^2+ and 1% (w/v) BSA to remove unbound cells. Bound cells were lysed using 0.5% (v/v) Triton X-100 in H2O. Fluorescent CMFDA released by lysis of adherent cells in a given well was read using a Cytofluor 2350 fluorescence plate reader.
(§2) Adhesive ligands for the selected integrins consisted of collagen IV (0.2 μg/well), collagen I, fibronectin, or vascular cell adhesion molecule-1 (VCAM-1). Adhesive ligands in 0.02 M acetic acid were immobilized overnight at 4° C. on a 96-well plate. Plates were then blocked with 1% (w/v) BSA (bovine serum albumin) in Hank's Balanced Salt Solution (HBSS) containing 3 mM Mg^2+ at room temperature for 1-2 hours to prevent cells from non-specifically binding to the plates. α1K562, α2K562, K562, A5, and Jurkat cells expressing the α1β1, α2β1, α5β1, αIIbβ3, and α4β1 integrins respectively were labeled by incubation with 12.5 μM 5-chloromethylfluorescein diacetate (CMFDA) in HBSS for 15 minutes at 37° C. CMFDA labeled cells were then pelleted, washed and resuspended in HBSS buffer containing 3 mM Mg^2+ and 1% (w/v) BSA. […] Plates were then incubated at 37° C. for 30 minutes as indicated in Table 5 and washed three times with HBSS containing 3 mM Mg^2+ and 1% (w/v) BSA to remove unbound cells. Bound cells were lysed using 0.5% (v/v) Triton X-100 in H2O. Fluorescent CMFDA released by lysis of adherent cells in a given well was read using a Cytofluor 2350 fluorescence plate reader.
(§3) The effect of obtustatin, viperisrastatin, echistatin, and eristostatin on the binding of selected integrins to their adhesive ligands was evaluated using the cell adhesion assay described in Example 6. The integrin-expressing cells, integrins and corresponding adhesive ligands, and the results of the cell adhesion assay are shown in Table 6.

αvβ3 integrin = target: T2, αvβ3 integrin (Homo sapiens, UniProt P05106+P06756); assay: adhesion of JY cells to vitronectin; format: cell-based; details: αvβ3, VN
T2 construct: endogenous in cells; host or cells: JY cells

α6β1 integrin = target: T3, α6β1 integrin (Homo sapiens, UniProt P05556+P23229); assay: adhesion of α6K562 cells to laminin; format: cell-based; details: α6β1, LM
T3 construct: expressed in transfected cells; host or cells: α6K562 cells
T3 sequence (P23229 24-938 limits assumed): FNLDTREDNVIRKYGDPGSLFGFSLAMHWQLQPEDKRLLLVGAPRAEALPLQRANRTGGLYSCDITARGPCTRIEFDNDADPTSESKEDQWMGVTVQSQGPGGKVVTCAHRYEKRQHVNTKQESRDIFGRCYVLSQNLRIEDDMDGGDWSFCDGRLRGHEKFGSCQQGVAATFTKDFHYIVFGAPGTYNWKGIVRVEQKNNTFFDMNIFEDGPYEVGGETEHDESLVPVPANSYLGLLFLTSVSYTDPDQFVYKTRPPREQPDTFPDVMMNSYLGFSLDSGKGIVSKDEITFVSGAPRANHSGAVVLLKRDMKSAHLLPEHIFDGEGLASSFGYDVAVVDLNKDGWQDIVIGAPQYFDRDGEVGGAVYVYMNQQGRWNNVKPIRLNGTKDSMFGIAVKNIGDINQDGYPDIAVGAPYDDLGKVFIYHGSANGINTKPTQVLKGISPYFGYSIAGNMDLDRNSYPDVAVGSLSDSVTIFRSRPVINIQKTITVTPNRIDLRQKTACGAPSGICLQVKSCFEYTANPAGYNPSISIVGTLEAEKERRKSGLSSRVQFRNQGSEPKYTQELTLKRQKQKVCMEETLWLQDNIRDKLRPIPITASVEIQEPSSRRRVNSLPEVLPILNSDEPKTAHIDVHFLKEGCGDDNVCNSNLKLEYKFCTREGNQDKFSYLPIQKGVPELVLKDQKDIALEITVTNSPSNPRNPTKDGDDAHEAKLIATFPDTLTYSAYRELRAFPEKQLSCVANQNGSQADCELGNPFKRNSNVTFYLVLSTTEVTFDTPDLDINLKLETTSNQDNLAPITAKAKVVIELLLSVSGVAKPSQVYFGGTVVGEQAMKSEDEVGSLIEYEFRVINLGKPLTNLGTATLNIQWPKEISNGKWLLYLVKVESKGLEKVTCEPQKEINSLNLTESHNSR
T3 sequence (P23229 942-1130 partner limits assumed): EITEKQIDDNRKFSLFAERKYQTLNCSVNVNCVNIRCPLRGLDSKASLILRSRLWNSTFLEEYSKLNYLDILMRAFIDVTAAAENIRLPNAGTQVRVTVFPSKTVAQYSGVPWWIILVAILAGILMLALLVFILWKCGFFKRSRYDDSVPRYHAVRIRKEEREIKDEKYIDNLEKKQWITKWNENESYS
T3 sequence (P05556 21-798): as the sequence (P05556 21-798) above

αIIbβ3 integrin = target: T4, αIIbβ3 integrin (Homo sapiens, UniProt P05106+P08514); assay: adhesion of A5 cells to fibrinogen; format: cell-based
T4 construct: expressed in transfected cells; host or cells: A5 cells
Method: as §2, §3

α1β1 integrin [4] = target: T5, α1β1 integrin (Mus musculus, UniProt P09055+Q3V3R4); assay: adhesion of B16F10 cells to collagen IV; format: cell-based; details: for IC50: α1β1, Coll IV
T5 construct: endogenous in cells; host or cells: B16F10 cells
T5 sequence (Q3V3R4 29-1179): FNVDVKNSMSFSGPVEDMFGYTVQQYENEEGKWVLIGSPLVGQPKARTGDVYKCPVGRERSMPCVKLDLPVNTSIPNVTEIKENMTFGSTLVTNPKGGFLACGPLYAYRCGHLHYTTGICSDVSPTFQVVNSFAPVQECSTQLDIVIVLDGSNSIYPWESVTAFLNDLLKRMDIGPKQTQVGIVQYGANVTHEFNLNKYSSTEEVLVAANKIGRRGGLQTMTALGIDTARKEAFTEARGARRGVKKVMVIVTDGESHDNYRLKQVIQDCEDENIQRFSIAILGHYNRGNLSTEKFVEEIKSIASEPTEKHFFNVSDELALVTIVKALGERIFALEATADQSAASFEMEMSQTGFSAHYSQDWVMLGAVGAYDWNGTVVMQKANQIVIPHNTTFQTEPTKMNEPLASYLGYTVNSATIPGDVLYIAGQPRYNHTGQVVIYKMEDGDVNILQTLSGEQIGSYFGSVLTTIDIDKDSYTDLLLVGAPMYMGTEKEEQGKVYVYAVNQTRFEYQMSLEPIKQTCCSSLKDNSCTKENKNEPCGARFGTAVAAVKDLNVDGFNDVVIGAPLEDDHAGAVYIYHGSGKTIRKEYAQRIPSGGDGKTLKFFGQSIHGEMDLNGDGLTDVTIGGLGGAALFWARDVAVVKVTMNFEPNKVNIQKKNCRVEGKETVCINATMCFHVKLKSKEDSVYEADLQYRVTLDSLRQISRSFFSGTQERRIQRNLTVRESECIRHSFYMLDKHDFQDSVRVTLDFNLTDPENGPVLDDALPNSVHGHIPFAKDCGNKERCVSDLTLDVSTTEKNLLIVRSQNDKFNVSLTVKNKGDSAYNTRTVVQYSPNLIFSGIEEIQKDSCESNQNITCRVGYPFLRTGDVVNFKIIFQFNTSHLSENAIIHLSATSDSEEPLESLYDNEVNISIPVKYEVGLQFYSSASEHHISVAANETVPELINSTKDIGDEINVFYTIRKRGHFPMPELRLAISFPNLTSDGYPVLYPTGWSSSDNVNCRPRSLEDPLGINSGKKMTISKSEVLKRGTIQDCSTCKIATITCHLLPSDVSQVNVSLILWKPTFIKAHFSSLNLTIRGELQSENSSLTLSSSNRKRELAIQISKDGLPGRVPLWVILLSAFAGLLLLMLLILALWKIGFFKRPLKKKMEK
T5 sequence (P09055 21-798): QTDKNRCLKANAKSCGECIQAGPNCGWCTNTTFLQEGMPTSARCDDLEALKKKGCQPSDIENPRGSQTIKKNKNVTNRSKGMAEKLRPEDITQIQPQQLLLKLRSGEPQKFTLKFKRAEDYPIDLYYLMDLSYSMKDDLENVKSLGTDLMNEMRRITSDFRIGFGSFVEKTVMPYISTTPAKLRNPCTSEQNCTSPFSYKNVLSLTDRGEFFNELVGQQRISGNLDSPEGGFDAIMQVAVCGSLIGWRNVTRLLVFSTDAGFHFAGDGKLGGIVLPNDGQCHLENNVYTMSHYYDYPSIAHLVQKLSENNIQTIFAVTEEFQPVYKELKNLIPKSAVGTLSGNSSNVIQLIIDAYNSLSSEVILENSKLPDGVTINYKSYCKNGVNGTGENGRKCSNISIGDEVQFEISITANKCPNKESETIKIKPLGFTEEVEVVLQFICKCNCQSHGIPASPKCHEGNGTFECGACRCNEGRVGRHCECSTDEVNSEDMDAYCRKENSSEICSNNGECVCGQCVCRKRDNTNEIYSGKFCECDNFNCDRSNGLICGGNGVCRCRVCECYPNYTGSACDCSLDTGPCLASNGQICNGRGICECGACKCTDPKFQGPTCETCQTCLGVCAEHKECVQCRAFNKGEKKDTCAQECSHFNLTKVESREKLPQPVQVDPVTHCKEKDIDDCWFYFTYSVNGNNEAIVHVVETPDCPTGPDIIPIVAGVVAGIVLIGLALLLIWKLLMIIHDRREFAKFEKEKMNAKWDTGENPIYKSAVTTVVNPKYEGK

α2β1 integrin = α2β1 integrin (Homo sapiens, UniProt P05556+P17301); assay: adhesion of α2K562 cells to collagen I; format: cell-based; set-up: expressed in transfected cells; host or cells: α2K562 cells
Method: as §2, §3

α4β1 integrin = target: T6, α4β1 integrin (Homo sapiens, UniProt P05556+P13612); assay: adhesion of Jurkat cells to VCAM-1; format: cell-based; details: α4β1, VCAM-1
T6 construct: endogenous in cells; host or cells: Jurkat cells
Method: as §2, §3

α9β1 integrin = target: T7, α9β1 integrin (Homo sapiens, UniProt P05556+Q13797); assay: adhesion of SW480α9 cells to VCAM-1; format: cell-based; details: α9β1, VCAM-1
T7 construct: expressed in transfected cells; host or cells: SW480α9 cells

Lewis lung carcinoma = Lewis lung carcinoma growth in syngeneic mouse model; format: in vivo, C57BL/6 mice; details: 5 mg/kg intraperitoneally once daily for eight days
Method: Lewis lung carcinoma cells (1×10^6) were injected under the skin of the C57BL/6 mice (Tacoma Inc., Germantown, N.Y.), and tumors were allowed to grow for one week. The average tumor size after one week of growth was approximately 0.08 cm^3. The one-week time-point was called “day 0.” Two treatment groups of four mice each were injected intraperitoneally once daily with either 5 mg/kg obtustatin or 5 mg/kg echistatin beginning on day 0 for a total of eight days. A control group of four mice received only PBS. Tumor volume was measured daily using the formula length×width^2×0.52.

α1β1 integrin [5] = target: T1, α1β1 integrin; assay: adhesion of HS.939T cells to collagen IV; format: cell-based; details: α1β1, Coll IV
α1β1 integrin [6] = target: T1, α1β1 integrin; assay: adhesion of α1K562 cells to collagen I; format: cell-based; details: α1β1, Coll I
Method: as §2, §3

α5β1 integrin = target: T8, α5β1 integrin (Homo sapiens, UniProt P05556+P08648); assay: adhesion of K562 cells to fibronectin; format: cell-based
T8 construct: endogenous in cells; host or cells: K562 cells
Method: as §2, §3

angiogenesis = assay: Japanese quail chorioallantoic membrane (CAM) angiogenesis assay; format: in vivo; details: 20 μg and 50 μg, in words
Method: The disintegrins obtustatin and eristostatin were evaluated for their effect on angiogenesis via a Japanese quail chorioallantoic membrane (CAM) assay, as is known in the art (see, for example, Parsons-Wingerter P et al., “A Novel Assay of Angiogenesis in the Quail Chorioallantoic Membrane: Stimulation by bFGF and Inhibition by Angiostatin According to Fractal Dimension and Grid Intersection.” Microvascular Research 55(3):201-214, 1998, the disclosure of which is herein incorporated by reference).

Compound | apoptosis (caspase-3) [1] | apoptosis (caspase-3) [2] | inhibition of α1β1 integrin-mediated adhesion of α1K562 cells to collagen IV (α1β1 integrin [3]; in words) | IC50 (αvβ3 integrin) [µM] | IC50 (α6β1 integrin) [µM] | IC50 (αIIbβ3 integrin) [µM] | IC50 (α1β1 integrin [4]) [µM] | IC50 (α2β1 integrin) [µM] | IC50 (α4β1 integrin) [µM] | IC50 (α9β1 integrin) [µM] | IC50 (α1β1 integrin [3]) [µM] | inhibition of tumor development (tumor volume) (Lewis lung carcinoma) | IC50 (α1β1 integrin [5]) [µM] | IC50 (α1β1 integrin [6]) [µM] | IC50 (α5β1 integrin) [µM] | effect on angiogenesis (fractal dimension) (angiogenesis) | activity relative to obtustatin, mouse α1β1 integrin (α1β1 integrin [4])
CC[C@]1(O)C[C@H]2CN(CCc3c([nH]c4ccccc34)[C@@](C(=O)OC)(c3cc4c(cc3OC)N(C=O)[C@H]3[C@@](O)(C(=O)OC)[C@H](OC(C)=O)[C@]5(CC)C=CCN6CC[C@]43[C@@H]65)C2)C1 [vincristine] | induced apoptosis | induced apoptosis | – | – | – | – | – | – | – | – | – | – | – | – | – | – | –
CKLKPAGTTC (obtustatin fragment) | – | – | did not appreciably inhibit | – | – | – | – | – | – | – | – | – | – | – | – | – | –
Echistatin: short RGD-containing disintegrin (QCESGPCCRNCKFLKEGTICKRARGDDMDDYCNGKTCDCPRNPHKGPAT) [reference compound] | – | – | – | 0.0001 | > 10 | 0.05 | > 10 | > 10 | > 10 | > 10 | > 10 | no effect | > 10 | > 10 | 0.05 | – | –
Eristostatin: short disintegrin compared with obtustatin (QEEPCATGPCCRRCKFKRAGKVCRVARGDWNDDYCTGKSCDCPKNPWNG) [reference compound] | – | – | – | 2 | > 10 | – | > 10 | > 10 | > 10 | > 10 | > 10 | – | > 10 | > 10 | > 10 | no affect | –
TNF-α | induced apoptosis | induced apoptosis | – | – | – | – | – | – | – | – | – | – | – | – | – | – | –
Viperisrastatin (CTTGPCCRQCKLKPAGTTCWKTSRTSHYCTGKSCDCPVYQG) | – | – | – | > 10 | > 10 | > 10 | 0.00025 | > 10 | > 10 | > 10 | 8e-05 | – | 2e-06 | 2e-05 | > 10 | – | similar
